What was measured:
amyloid beta 1-42 = target: T1, amyloid beta 1-42 (human, UniProt P05067 672-713); assay: SPR; cypD captured on an amine-coupled anti-cypD antibody; oligomeric Aβ (Preparation A) injected at 1 μM for 5 min; running buffer 10 mM HEPES pH 7.4, 5 mM Na+, BSA 200 μg/mL, K+ 0-500 mM, Mg2+ 0-50 mM; 25 °C, 20 µL/min; reference-compensated response 5 min after return to buffer; conditions: both partners purified
T1 construct: amyloid beta fragment 1-42 (42 amino acids), human, synthetic; numbers count on: the Aβ peptide; Used in an oligomeric form (Preparation A) and a monomeric form (Preparation B); The two forms are told apart by the assay; also called Aβ_(1–42); Aβ; source: synthetic peptide; bought: AnaSpec

amyloid beta 1-40 = target: T2, amyloid beta 1-40 (human, UniProt P05067 672-711); assay: SPR; cypD captured on an amine-coupled anti-cypD antibody; monomeric Aβ (Preparation C for Aβ1-40, Preparation B for Aβ1-42) injected at 1 μM for 5 min; running buffer 10 mM HEPES pH 7.4, 5 mM Na+, BSA 200 μg/mL, K+ 0-500 mM, Mg2+ 0-50 mM; 25 °C, 20 µL/min; reference-compensated response 5 min after return to buffer; conditions: both partners purified
T2 construct: amyloid beta fragment 1-40 (40 amino acids), human, synthetic; numbers count on: the Aβ peptide; Used in a monomeric form (Preparation C) and an oligomeric form (Preparation A); The two forms are told apart by the assay; also called Aβ_(1–40); Aβ; source: synthetic peptide; bought: AnaSpec
T2 sequence (P05067 672-711): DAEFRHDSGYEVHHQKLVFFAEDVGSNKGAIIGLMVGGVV

T1 sequence (P05067 672-713): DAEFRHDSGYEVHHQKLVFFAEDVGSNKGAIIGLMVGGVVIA

binding result (amyloid beta 1-42): binds
binding result (amyloid beta 1-40): binds
B1: cyclophilin D (enzyme)
chain: not shown
notes: cyclophilin D (cypD), human, recombinant, bought from Fitzgerald; also called cypD; source: bought: Fitzgerald (human, recombinant)

From paper PMC7766583 (International Journal of Molecular Sciences, 2020)
